We go through four molecules from patent US20160032013A1 (Genentech, published 2016).

The target in assay [1] is T1, Human RON-hIgG1 Fc (RON Sema/PSI/IPT1 fused to human IgG1 Fc) (human).
T1 construct: also called RON-Fc; hRON-Fc
Nature of the assay: SPR capturing RON-Fc at 25 C. As to the method:
To determine MSP protein binding kinetics to hRON-Fc or mRON-Fc fusion proteins, between 50 and 100 response units (RU) were captured on each of three immobilized anti-human Fc surfaces. Various concentrations (50-0.78 nM, 2-fold dilution series) of MSP, MSP β, MSP α or scMSP were injected in HBS-P buffer (10 mM HEPES, pH 7.5, 150 mM NaCl, 0.005% P20) at 25° C. with a flow rate of 30 μL/min and dissociation monitored for 4 min. Between measurements, the biosensor surfaces were regenerated with a 2 min pulse of 10 mM glycine-HCl pH 1.5.

The target of assay [2] is T2, Recombinant human RON Sema/PSI (residues E25-P568) with C-terminal His-tag (human, UniProt Q04912 25-568).
T2 construct: Made in Trichoplusia ni insect cells
Nature of the assay: SPR using immobilized RON Sema/PSI at 25 C.

Assay [3] has as its target T3, Human RON on cells (3T3-hRON, A2780-hRON, BxPC3, human primary colon cells) (human, UniProt Q04912 25-1400).
T3 construct: That is its entry for human RON
Kind of assay: radioligand binding to 3T3-hRON cells for 4 h on ice.

The target in assay [4] is T1, Human RON-hIgG1 Fc (RON Sema/PSI/IPT1 …). Kind of assay: BLI using RON-Fc at 30 C. As to the method: Real-time kinetic measurements of MSP binding to RON were conducted using an Octet RED384 (ForteBio, Inc). Samples or buffer were dispensed into 96-well microtiter plates (Greiner Bio-One North America, Inc.) at a volume of 200 μl per well. Anti-human IgG Fc Biosensors were used for the experiments. Each experiment consisted of three steps: incubation with ForteBio Kinetic buffer diluted 1:10 in PBS assay buffer to establish an equilibrium for 120 s (baseline), incubation with 10 μg/ml RON-Fc in assay buffer to coat the biosensor with binding target for 900 s (load), incubation with MSP, MSP β or scMSP in assay buffer containing various concentrations (75-4.7 nM, 2-fold dilution series) for 400 s (association), and incubation with assay buffer to measure the off-rate of MSP for 400 s (dissociation). Operating temperature was maintained at 30° C. Data were generated automatically by the Octet Data Acquisition 7.0 software. Each data set was fitted globally to a simple one-to-one binding model using ForteBio Analysis Software 7.0 to determine the kinetic parameters kₐ and kd. The equilibrium dissociation constants (KD) were then calculated as a ratio (koff/kₒₙ) of these rate constants.

For assay [5] the target is unchanged. Kind of assay: plate binding assay, plate-bound RON-Fc, soluble His-tagged MSP, anti-His-HRP, 4-parameter fit. The text has this: (§1) Means of three replicates per group are shown. […] C presents results of SPR analysis of MSP proteins binding to immobilized RON Sema/PSI, showing relative response in response units. Data are representative of three independent experiments. […] Competition binding to 3T3-hRON cells (large graphs) used to generate affinities and Scatchard plots (inset graphs) are shown. Mean+/−standard deviation (SD) of three independent experiments is shown. E is a homology model of the structure of RON Sema/PSI (PDB code 4FWW) shown at the bottom, which binds to MSP β (PDB code 2ASU) shown on top. RON and MSP β were globally aligned to the Met/HGF β complex (PDB code 1SHY). Predicted locations of the MSP β contact residues within 4 Å of RON are marked by asterisks. […]
(§2) MaxiSorp plates (Nalge Nunc International) were coated overnight at 4° C. with 2 μg/ml of rabbit anti-human IgG Fc specific antibody (Jackson ImmunoResearch Laboratories) in 50 mM sodium carbonate buffer, pH 9.6. […] Bound MSP was detected using anti-His-HRP (Qiagen Inc.) followed by addition of TMB/H₂O₂ substrate (Thermo Scientific). The reaction was stopped with 1M H₃PO₄ and the absorbance at 450 nm (A₄₅₀) was measured on a SpectraMax Plus³⁸⁴ plate reader (Molecular Devices, LLC). The half maximal effective concentration of MSP (EC₅₀) was determined by a 4-parameter fit using Kaleidagraph (Synergy Software).

The target of assay [6] is T3, Human RON on cells (3T3-hRON, …). Nature of the assay: radioligand binding to 3T3-hRON cells for 2 h at room temperature. As to the method: (§3) MSP proteins were iodinated using the Iodogen method (Thermo Scientific) and purified from free Na¹²⁵I by gel filtration using a NAP-5 column. Specific activities ranged from 12.26 to 18.65 μCi/μg. Competition reaction mixtures were made of a fixed concentration of iodinated MSP and unlabeled MSP serially diluted 1- to 2-fold ten times starting at 5 μM in a volume of 50 μL. 3T3-hRon cells were washed with binding buffer, consisting of DMEM with 1% bovine serum albumin, 325 nM human IgG, 50 mM HEPES (pH 7.2) and 0.1% sodium azide. 150,000 cells in 0.2 ml binding buffer were added to competition reaction mixtures. Competition reactions with cells were incubated for 2 h at room temperature and transferred to a Multiscreen filter plate (Millipore) and washed 4 times with binding buffer. Filters were counted on a Wallac Wizard 1470 gamma counter (PerkinElmer Life and Analytical Sciences). Binding affinities were determined using NewLigand software (Genentech, Inc) (Munson et al., 1980, Anal Biochem 107:220-39).

For assay [7] the target is unchanged. Kind of assay: radioligand competition binding on 3T3-hRON cells: fixed 125I-MSP 689C as competitor, unlabeled MSP 689C titrated [Continued) D]. As to the method:
as §3

In assay [8] the target is T1, Human RON-hIgG1 Fc (RON Sema/PSI/IPT1 …). Kind of assay: plate binding assay, plate-bound RON-Fc, soluble His-tagged MSP β, anti-His-HRP, 4-parameter fit.
Source text: as §1, §2

Assay [9] deals with T4, Mouse RON-hIgG1 Fc (murine RON Sema/PSI/IPT1, natural leader + R33-V684, fused to human IgG1 Fc) (mouse).
T4 construct: also called mRON-hFc; murine RON-Fc
Nature of the assay: SPR (Biacore), anti-Fc chip, murine RON-Fc captured and MSP protein injected; table headed 'Similar High Affinities for Murine RON'. As to the method:
Binding kinetics of RON to MSP β-Fc fusion proteins and MSP proteins to RON-Fc fusions were determined using a Biacore 3000 optical biosensor equipped with a research-grade CM5 sensor chip (GE Healthcare). Amine coupling reagents, N-ethyl-N′-dimethylamino-propylcarbodiimide (EDC), N-hydroxy-succinimide (NHS) and sodium ethanolamine HCl, pH 8.5, were obtained from GE Healthcare. Standard coupling protocols were used to tether a rabbit anti-human IgG1 or rabbit anti-murine IgG2a (Jackson ImmunoResearch Laboratories) onto the biosensor surface. A biosensor chip that was subjected to the amine coupling procedure with no protein coupled was used to correct for non-specific binding. […] Various concentrations (500-3.9 nM, 2-fold dilution series) of RON-His, were injected in HBS-P buffer (10 mM HEPES, pH 7.5, 150 mM NaCl, 0.005% P20) at 25° C. with a flow rate of 30 μL/min and dissociation monitored for 240 sec. Between measurements, the biosensor surfaces were regenerated with a 120 s pulse of 10 mM glycine-HCl pH 1.5 followed by a 120 s wash with running buffer.
To function as a RON agonist, MSPβ-IgG2a fusion proteins must bind the RON receptor. To assay binding, surface plasmon resonance was used to measure the affinity of full-length human MSP, human and mouse MSP β, and a number of human and mouse MSPβ-IgG2a fusions for immobilized RON receptor. […]

T1 sequence (chain, as listed by the source limits assumed): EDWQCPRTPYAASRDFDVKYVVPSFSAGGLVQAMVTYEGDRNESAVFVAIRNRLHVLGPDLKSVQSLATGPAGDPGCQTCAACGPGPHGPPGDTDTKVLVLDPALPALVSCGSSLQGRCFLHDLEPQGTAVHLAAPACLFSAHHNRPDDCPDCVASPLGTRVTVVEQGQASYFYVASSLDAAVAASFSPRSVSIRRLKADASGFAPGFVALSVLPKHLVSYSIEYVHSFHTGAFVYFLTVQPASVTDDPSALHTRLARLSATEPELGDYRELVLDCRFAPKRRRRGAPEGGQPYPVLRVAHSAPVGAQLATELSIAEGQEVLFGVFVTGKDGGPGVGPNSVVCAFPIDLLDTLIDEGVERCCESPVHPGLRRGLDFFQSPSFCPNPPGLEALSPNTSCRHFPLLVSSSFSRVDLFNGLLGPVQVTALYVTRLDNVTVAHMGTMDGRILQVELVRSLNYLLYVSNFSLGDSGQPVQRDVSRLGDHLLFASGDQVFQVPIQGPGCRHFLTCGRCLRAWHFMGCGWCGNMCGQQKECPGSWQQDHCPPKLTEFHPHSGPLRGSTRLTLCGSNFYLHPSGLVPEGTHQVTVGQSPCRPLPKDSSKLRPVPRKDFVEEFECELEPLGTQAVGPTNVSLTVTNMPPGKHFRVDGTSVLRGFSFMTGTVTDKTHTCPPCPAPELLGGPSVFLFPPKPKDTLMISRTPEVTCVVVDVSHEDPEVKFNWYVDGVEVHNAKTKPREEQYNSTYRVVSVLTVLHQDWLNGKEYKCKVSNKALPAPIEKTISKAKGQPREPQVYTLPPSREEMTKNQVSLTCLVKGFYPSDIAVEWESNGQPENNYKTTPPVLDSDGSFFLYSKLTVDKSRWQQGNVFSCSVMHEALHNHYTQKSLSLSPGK

B1: Full length human MSP R689C (wild type + C672A + R689C + His tag), active two-chain form (ligand)
chain 1: QRSPLNDFQVLRGTELQHLLHAVVPGPWQEDVADAEECAGRCGPLMDCRAFHYNVSSHGCQLLPWTQHSPHTRLRRSGRCDLFQKKDYVRTCIMNNGVGYRGTMATTVGGLPCQAWSHKFPNDHKYTPTLRNGLEENFCRNPDGDPGGPWCYTTDPAVRFQSCGIKSCREAACVWCNGEEYRGAVDRTESGRECQRWDLQHPHQHPFEPGKFLDQGLDDNYCRNPDGSERPWCYTTDPQIEREFCDLPRCGSEAQPRQEATTVSCFRGKGEGYRGTANTTTAGVPCQRWDAQIPHQHRFTPEKYACKDLRENFCRNPDGSEAPWCFTLRPGMRAAFCYQIRRCTDDVRPQDCYHGAGEQYRGTVSKTRKGVQCQRWSAETPHKPQFTFTSEPHAQLEENFCRNPDGDSHGPWCYTMDPRTPFDYCALRRCADDQPPSILDPPDQVQFEKCGKRVDRLDQRRSKLR
chain 2: VVGGHPGNSPWTVSLRNRQGQHFCGGSLVKEQWILTARQCFSSCHMPLTGYEVWLGTLFQNPQHGEPSLQRVPVAKMVCGPSGSQLVLLKLERSVTLNQRVALICLPPEWYVVPPGTKCEIAGWGETKGTGNDTVLNVALLNVISNQECNIKHRGRVRESEMCTEGLLAPVGACEGDYGGPLACFTHNAWVLEGIIIPNRVCARSCWPAVFTRVSVFVDWIHKVMRLGHHHHHH
On to B1, for which the Kd is 9.6 nM in assay [1]; 9.6 nM in [2]; 25.7 nM in [3]; 9.4 nM in assay [4]; 13 nM in [6]. Further, the koff in assay [1] is approximately 0.0016 s⁻¹; in assay [2] it was 0.0012 s⁻¹. The kon was approximately 170000 M⁻¹ s⁻¹ in [1] and 116000 M⁻¹ s⁻¹ in assay [2]. Also, the EC50 in assay [5] was 0.2 nM. Also, the “IC50 (read off the curve)” value in assay [7] was approximately 10 nM.

B2: Human MSP β 689R with wild-type C672 (HGF leader + V484-G711 + C588S + C672C + His tag) (ligand)
chain: VVGGHPGNSPWTVSLRNRQGQHFCGGSLVKEQWILTARQCFSSCHMPLTGYEVWLGTLFQNPQHGEPSLQRVPVAKMVCGPSGSQLVLLKLERSVTLNQRVALISLPPEWYVVPPGTKCEIAGWGETKGTGNDTVLNVALLNVISNQECNIKHRGRVRESEMCTEGLLAPVGACEGDYGGPLACFTHNCWVLEGIIIPNRVCARSRWPAVFTRVSVFVDWIHKVMRLGHHHHHH
For the molecule B2, the EC50 in assay [8] amounted to 0.05 nM.

B3: Human MSP β 689R (HGF leader + V484-G711 + C588S + C672A + His tag) (ligand)
chain: VVGGHPGNSPWTVSLRNRQGQHFCGGSLVKEQWILTARQCFSSCHMPLTGYEVWLGTLFQNPQHGEPSLQRVPVAKMVCGPSGSQLVLLKLERSVTLNQRVALISLPPEWYVVPPGTKCEIAGWGETKGTGNDTVLNVALLNVISNQECNIKHRGRVRESEMCTEGLLAPVGACEGDYGGPLACFTHNAWVLEGIIIPNRVCARSRWPAVFTRVSVFVDWIHKVMRLGHHHHHH
notes: This is an inference
For B3, the Kd stood at 9.6 nM in [1], 6.6 nM in assay [2], 7.5 nM in [4] and 5.1 nM in [9]. Moreover, the figures for the koff in [1], in assay [2] and in assay [4] were 0.0275 s⁻¹, 0.0159 s⁻¹ and 0.0025 s⁻¹, respectively. In addition, the values for the kon in [1], in assay [2] and in [4] were 3.53e+06 M⁻¹ s⁻¹, 2.45e+06 M⁻¹ s⁻¹ and 388000 M⁻¹ s⁻¹, respectively.

B4: Human MSP β R689C with wild-type C672 (HGF leader + V484-G711 + C588S + C672C + R689C + His tag) (ligand)
chain: VVGGHPGNSPWTVSLRNRQGQHFCGGSLVKEQWILTARQCFSSCHMPLTGYEVWLGTLFQNPQHGEPSLQRVPVAKMVCGPSGSQLVLLKLERSVTLNQRVALISLPPEWYVVPPGTKCEIAGWGETKGTGNDTVLNVALLNVISNQECNIKHRGRVRESEMCTEGLLAPVGACEGDYGGPLACFTHNCWVLEGIIIPNRVCARSCWPAVFTRVSVFVDWIHKVMRLGHHHHHH
For B4, in [1], binding was put at a Kd of 9.7 nM, the koff stood at 0.0079 s⁻¹ and the kon worked out at 870000 M⁻¹ s⁻¹. Moreover, the EC50 in assay [8] was found to be 0.1 nM.
